Measurements as given in the nanobody polyreactivity screen of Harvey et al. (2022).

Assay: yeast display, Sf9 membrane polyspecificity reagent, FACS + sequencing; frameworks hold sequencing errors
In short: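 Galactose-induced (36–48 hours) yeast carrying a synthetic nanobody display library were exposed to 10% biotinylated, detergent-solubilized Sf9 membrane reagent at 4 °C for 1 hour. FACS followed streptavidin microbead enrichment, using low and high (top ~1%) gates for expression (anti-HA) and reagent binding (streptavidin). Colony PCR, MiSeq 2 × 250 sequencing and CDR-length filtering followed. Labels for polyreactivity reflect the gate of origin.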

| Sequence | polyreactivity (PSR sort gate) |
| --- | --- |
| QVQLVDSRGGLLQAGGSLRLSCAASGSIISRNAKGWYRQAPGKESELVAAITRSGGSTYYADSVKGRFTISRENAKNTVYLQRNRLKPEDTAVYYCATPIFSARRYTGYVKYDYWAQGTQVTVSS | high polyreactivity |
| QVQLVDSRGGLVQAGGSLRLICAASGSTFGRYARGWYRPEPGTERELVAAISWRGGSTFYADSVKGRFTISRDNAKNTVYLLMISLKPEDTAVYYCAAVSYGRPRMGYWGQGTQVTVSS | high polyreactivity |
| QVQLVDSRGGLVQAGGSLRLSCAASGFTFWYYAMGWYRQAPGKERELVAAITNGGGSKYYADSVKGRFTISRDNAKNTFYLQMNSLKPEDTAVFYCAKDGHSYYPWEYDYWGQGTQVTVSS | low polyreactivity |
| QVQLVDSVGGLVQAGGSLRLSCAASGFTFYYNAMGLYRQAPGKERELVAAITSSGGSTYYADSVKGRFTISRDNAKNTVYLQMNSLKPEDTAVYYCAAVVYYRGYTYNYWGQGTQVTVSS | high polyreactivity |
| QVQLVDSVGGLVQAGGSLRLSCAASGSIFGVYAKGWYRQAPGKERELVAAIDESGGSTFYADSVKGRFTISRDNAKNTVYLQMNSLKPEDTAVYYCLVFREDSGPGDYYYWGQGTQVTVSS | low polyreactivity |
| QVQLVDSVGGLVQAGGSLRLSCAASGSIFNPYDMGWSRQAPGKERELVAAIDWSGGSTYYADSVKGRFTISRDNAKNTVYLQMNSLKPEDTAVYYCNARPDYSISLPGYPTLSEDDEYWGQGTQVTVSS | low polyreactivity |
| QVQLVDSVGGLVQAGGSLRLSCAASGSIFWTYAMGWYRQAPGKERELVATITYSDGNTYYADSVKGRFTISRDNAKNTVYLQMHSLKPEDTAVYYCNADGIYASISGYRYDYWGQGTQVTVSS | low polyreactivity |
| QVQLVDSVVGLVQAGGSLRLSFAASGYTYHYYAMGWYRQAPGKETELVAAISGSGSSTYYADSVKGRFTISRDNAKNTVYLQMNSLKPEDTAVYYCNARGHYPRARFGYKSGSDRYWGQGTQVTVSS | high polyreactivity |
| QVQLVDSWGGLVQAGGSLRLSCAASGFIFPYNTMGWYRQAPGKERELVAAISSGGSTYYADSVKGRFTISRDNAKNTVYLQMNSLKPEDTAVYYCAVRGRRSPYGYWGQGTQVTVSS | high polyreactivity |
| QVQLVDTGGGIVQAGGSLRLSCAASGRTFFWNAMGWYRLAPGKERELVAAITWYGGSTYYADSVKGRFTISRDNAKNTVYLQMNSLKPEDSAVYYCAAVVSDYVWRYEYWGQGTQVTVSS | low polyreactivity |
| QVQLVDTGGGLVQAGGSLRFSCAASGSIFQVYAMGWYRQAPGKERELVASITSSGGSTYYADSVKGRFTISRDNAKNTVYLQMNSLKTEDTAVYYCADDQWSQDYDYWGQGTQVTVSS | low polyreactivity |
| QVQLVEAGGCLVQAGGSLRLSCAASGRIFRFYTMGWYRQAPGNERELVAAIRYSSVSTYYADSVKGRFTISRDNAKNTVYLQMNSLKPEDTAVYYCDAVHRSYVKTYNYWGLGTQVTVSS | high polyreactivity |
| QVQLVEAGGGLVQAGGSLRLSCAASGRIFVPYAMGWYRQAPGKEWELVAGISWSGGSTYYADSVKGRFTISRDNAKNTVYLQMNNLKPEDTPVYYCAAAKRRRPFDYWGQGTQVTVSS | high polyreactivity |
| QVQLVEAGGGLVQAGGSLRLSCAASGRIFYQNTMGWYIQAPGKERELVAAISKSGGRTYYADSVKGRFTISRDNAKNTVYLQMNSLKPEDTAVYYCDQGYASEMDYWGQVTQVTVSS | high polyreactivity |
| QVQLVEAGGGLVQAGGSLRLSCAASGSTFPYNARGWYSQAPGKDRELVAAMTSAGGTNYADSVKGRFTISRDNATNTVYLQMNSLKPEDTAVYYCAADGSGYYDWYYYWGQGTQVTVSS | low polyreactivity |
| QVQLVEAGGGLVQAGGSLRLSCAASGSTFVKNAMGWYRQAPGKERELVAAISYRGGRTYYADSVKRRFTISRDNAKNTVYLQMNSLKPEDTAVYYCAADASHLTGYEYWGQGTQGTVSS | high polyreactivity |

| Sequence | polyreactivity (PSR sort gate) |
| --- | --- |
| QVQLVEAGGGLVQAGGSLRLSCAAYGRTFYTYAMGWYRQAPGKEREFVAAITWSGGSTYYADSVKGRFTISRDNAKNTVYLQMNSLKPEDPAVYYCAAGSRFRYSPGQSYEYGYWGQGTQVTVSS | low polyreactivity |
| QVQLVEAGVCLVQSGGRLRLSCAATGFTFTSKVIGWSRQAPGKERELVADISASDGRTYYADSVKGRFRISRENAKNTVYLQMNRLKTEDTAVYYCAASLWVYVGQARYHWYDYWGQGTQVTVSS | low polyreactivity |
| QVQLVEEGGGLVQAGGTRRLSCAASGSTFTVYVMGWYRQAPGQERELVAAINLSGGRTYYADSVKGRFTISRDNAKNTVYLQMNSLKPEDTAVYYCAADGSTWGDYRTYGYWGQGTLVTVSS | low polyreactivity |
| QVQLVESAAGLVQAGASHRLSCAASARTFTVNAMGWYRQAPGKERELVAAISGRSGRTSYADSVKGRFTISRDNAKNTVYLQMNSLKQEVTAVYYCAADYYFYFTYPARFGYWGLGTQVTVSS | high polyreactivity |
| QVQLVESAAGLVQAGASLRLSCAPSGSIFSGNALGWSRQAPGKARELVAAISQNGGRTYYADSVKGRFTISRDYAKNTVYLQMNILKPDDTAVYYCAALAVRFYSSYDYWGQGTQVTVSS | high polyreactivity |
| QVQLVESAAGLVQAGGSLRLSCAPSGSTFPRYAMGWYRQAPGKERELVAAITKNGGYTYYADSVKGRFTISRDNAKNTVYLQMNSLKPEDTAVYYCAAERWYSCYRVGVSYDYWGQGTQVTVSS | high polyreactivity |
| QVQLVESAAGLVQAGGSLSLSCAASGFIFWRYAMGWYRQAPGKERELVAAISVSGTRTYYADSVKGRFTISRDNAKNTVYLQMNSLKPEDTAVYYCNAASRSFSSDRAFDYWGQGTQVTVSS | high polyreactivity |
| QVQLVESAGDLVQAGRTLRFSCAPSGSIFKPNAMGWYRQAPGKERELVDDISRSGTSTYYADSVKGRFTISRDIAKNTVYLQMNSLKPEDTAVFNCATRYSGDYGYWGQGTQVTVSS | high polyreactivity |
| QVQLVESAGGIVQAGGSLRLSFAASGSTFTRYAMGWYRPAPGKERELVAAIDGGGGSTSYADSVKGRFTISRDHAKNTVYLQMNSLKPEDTAVYYCAAPLDTSSRIFDYWGHGTQVTVSS | low polyreactivity |
| QVQLVESAGGLVHAGGSLRLSCAASGNIFRWYAMGWYRQAPGKDRELVAAISSGGRTNYADSVKGRFTISRDNALNSVFLQMNSLKPEDTAVFYWYIVAGVTGRFYFWGQGTQVTVSS | low polyreactivity |
| QVQLVESAGGLVQAGASLRLSCAASGFIFRYNTKGWYRQAPGKEMELVATINRSGGSTYYADSVKGRFTISRDNAKNTVYLQMNSLKPVDTAVYYCAAVSLQPYYNAGATWDGDYWGQGTQVTVSS | high polyreactivity |
| QVQLVESAGGLVQAGASLRLSCAASGLIYRKYSMGWYRQAPGKERELVAAISSGGDTNYADSVKGLFTISRDNAKNTVYLQMNSLKPEDTAVYYCNADRKYWYGIALEYWGQGTQVTVSS | high polyreactivity |
| QVQLVESAGGLVQAGGILRLSCAASGFTFYFYAMGWYRQSPGKERELVAAISRSGSRTYYADSVKGRFTISRDNAKNTVYLQMNSLKPEDTAVYYCARVRPRGLYFVLHYDYWGQGTQVTVSS | high polyreactivity |
| QVQLVESAGGLVQAGGRLLLSCAASGRIFAKYAMGWYRQAPGKERELVAAIRSTGGGTYYADSVKGRFTISRDNAKNTVYLQMNSLKPEDTAVYYCDARQTYYKYGYWGQGTQVTVSS | high polyreactivity |
| QVQLVESAGGLVQAGGSLRLICAASVFTFYYYTMGWYRPAPGKERELVAGISGTGGSTYYADSVKGRFTISRDNAKNTVYLQMNSLKPEDTAVYYCAAGPWYWGQGTQVTVSS | low polyreactivity |
